Values quoted from earlier work, collected in article PMC7764831.

Biological target: p53 (Homo sapiens) (UniProt P04637)
Sequence (P04637 whole entry): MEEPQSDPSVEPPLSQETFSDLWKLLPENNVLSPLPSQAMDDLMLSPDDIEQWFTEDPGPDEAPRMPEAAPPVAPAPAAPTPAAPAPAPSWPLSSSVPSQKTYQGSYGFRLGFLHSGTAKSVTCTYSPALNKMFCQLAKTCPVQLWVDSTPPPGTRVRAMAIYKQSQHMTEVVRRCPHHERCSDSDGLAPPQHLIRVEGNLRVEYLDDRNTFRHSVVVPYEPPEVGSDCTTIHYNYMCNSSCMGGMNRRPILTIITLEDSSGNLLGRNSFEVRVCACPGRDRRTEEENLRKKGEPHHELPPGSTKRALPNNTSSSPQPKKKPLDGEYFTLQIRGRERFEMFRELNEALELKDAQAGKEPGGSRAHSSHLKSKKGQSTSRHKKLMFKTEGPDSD

Sequence of Azurin (P00282 21-148): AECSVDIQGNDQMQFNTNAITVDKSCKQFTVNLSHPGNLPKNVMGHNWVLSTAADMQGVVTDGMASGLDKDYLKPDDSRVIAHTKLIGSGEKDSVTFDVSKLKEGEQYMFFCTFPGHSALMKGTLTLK

For Azurin (from UniProt P00282), the Kd is listed as 6 µM.
